Results reported in publication PMC7528078, “Single molecule studies reveal that p53 tetramers dynamically bind response elements containing one or two half sites”.

Legend:
[1] = molecular target: T1, AF647-p53 (p53-SNAP labeled with AF647) (human, UniProt P04637 1-393); test: EMSA; complexes at low nM tetramer; EMSA: 25 mM HEPES pH 7.9, 50 mM KCl, 2.5 mM MgCl2, 1 mM EDTA, 10% glycerol, 0.1% NP-40, 1 mM DTT, 0.05 mg/mL BSA, room temp 30 min; TIRF: 25 mM Tris pH 7.9, 50; conditions: protein: recombinant; tags: N-terminal His; C-terminal SNAP tag with AlexaFluor647; chain copies: 4; label: 5' 32P on reverse strand; blunt
T1 sequence (P04637 whole entry): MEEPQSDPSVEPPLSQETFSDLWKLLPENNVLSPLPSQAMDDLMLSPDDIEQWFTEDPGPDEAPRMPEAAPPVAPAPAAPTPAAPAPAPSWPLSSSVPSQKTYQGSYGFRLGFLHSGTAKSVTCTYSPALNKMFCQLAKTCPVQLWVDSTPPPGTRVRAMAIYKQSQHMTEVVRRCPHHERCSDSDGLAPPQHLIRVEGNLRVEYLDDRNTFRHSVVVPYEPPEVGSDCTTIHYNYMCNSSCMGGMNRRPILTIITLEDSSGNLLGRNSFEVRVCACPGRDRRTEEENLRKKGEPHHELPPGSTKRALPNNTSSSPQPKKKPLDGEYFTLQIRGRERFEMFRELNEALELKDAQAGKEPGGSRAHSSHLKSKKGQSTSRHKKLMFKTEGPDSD

[2] = molecular target: T1, AF647-p53 (p53-SNAP labeled with AF647); test: EMSA; sub-nM affinity, assuming tetramer; EMSA: 25 mM HEPES pH 7.9, 50 mM KCl, 2.5 mM MgCl2, 1 mM EDTA, 10% glycerol, 0.1% NP-40, 1 mM DTT, 0.05 mg/mL BSA, room temp 30 min; TIRF: 25 mM Tris pH 7.9, 50; conditions: protein: recombinant; tags: N-terminal His; C-terminal SNAP tag with AlexaFluor647; chain copies: 4; label: 5' 32P on reverse strand; blunt
[3] = molecular target: T1, AF647-p53 (p53-SNAP labeled with AF647); test: single-molecule TIRF; apparent upper limit (<=), koff 1.0 s-1, kon(obs) 0.0188 s-1; EMSA: 25 mM HEPES pH 7.9, 50 mM KCl, 2.5 mM MgCl2, 1 mM EDTA, 10% glycerol, 0.1% NP-40, 1 mM DTT, 0.05 mg/mL BSA, room temp 30 min; TIRF: 25 mM Tris pH 7.9, 50; conditions: protein: recombinant; tags: N-terminal His; C-terminal SNAP tag with AlexaFluor647; chain copies: 4; label: 5' biotin on forward strand; 5' AF647 on reverse strand; 5' overhang 24 nt and 3' overhang 1 nt on forward strand as printed

B1: random DNA (EMSA) (dsDNA)
DNA 1: CGTTCCTAATCGGGTAGGGGCTGACACGAATA
DNA 2: TATTCGTGTCAGCCCCTACCCGATTAGGAACG
- binding result [1]: binds

B2: wild type DNA (EMSA) (dsDNA)
DNA 1: TAGAGCGAACATGTCTAAGCATGCTGGCGTCG
DNA 2: CGACGCCAGCATGCTTAGACATGTTCGCTCTA
- Kd [2]: < 1 nM

B3: mutant half site DNA (single molecule) (dsDNA)
DNA 1: CGCGTTCATGGTAGAGTCGTGGACTAGAGCGAACATGTCTTTCAAAGGCGGCGTCG
DNA 2: GACGCCGCCTTTGAAAGACATGTTCGCTCTA
- Kd [3]: < 13 nM
